Here are results for twelve molecules from patent publication US10941182 (Amgen, dated 2021).

Starred links: 1 amine or outer side, 2 acyl side, 3 side chain; linkers in the order of their positions; H or OH if unused. Non-standard residues stand in square brackets, D forms with d. Primed or numbered codes have the meaning given here. *: point of attachment. NPipG = 2-(piperidin-4-ylamino)acetic acid, O=C(CN(C1CCN([*:3])CC1)[*:1])[*:2]; AC4Abu = α-carboxy-4-aminobutyric acid, O=C(C(CCN[*:1])C(=O)[*:3])[*:2]; Oic = O=C(O)[C@@H]1C[C@@H]2CCCC[C@@H]2N1; Phe(4-Cl) = N[C@@H](Cc1ccc(Cl)cc1)C(=O)O; Phe(4-F) = N[C@@H](Cc1ccc(F)cc1)C(=O)O; γGlu = O=C(O)[C@H](CCC(=O)[*:2])N[*:1]; d(β3hF) = N[C@@H](CC(=O)O)Cc1ccccc1; Igl = N[C@H](C(=O)O)C1Cc2ccccc2C1; NMeR = CN[C@@H](CCCNC(=N)N)C(=O)O; Palmitoyl = CCCCCCCCCCCCCCCC(=O)*; 3Pal = N[C@@H](Cc1cccnc1)C(=O)O; Cha = N[C@@H](CC1CCCCC1)C(=O)O; αMeL = CC(C)C[C@](C)(N)C(=O)O; β3hP = O=C(O)C[C@@H]1CCCN1; Nle = CCCC[C@H](N)C(=O)O; Orn = NCCC[C@H](N)C(=O)O; Pip′ = not defined here; Dap = NC[C@H](N)C(=O)O; AEEA = NCCOCCOCC(=O)O; Aib = CC(C)(N)C(=O)O; NPrGly = CCCNCC(=O)O; BLeu = β-leucine; Sar = CNCC(=O)O

Test [1] addresses T1, human APJ receptor (human, UniProt P35414 1-380).
T1 sequence (looked up): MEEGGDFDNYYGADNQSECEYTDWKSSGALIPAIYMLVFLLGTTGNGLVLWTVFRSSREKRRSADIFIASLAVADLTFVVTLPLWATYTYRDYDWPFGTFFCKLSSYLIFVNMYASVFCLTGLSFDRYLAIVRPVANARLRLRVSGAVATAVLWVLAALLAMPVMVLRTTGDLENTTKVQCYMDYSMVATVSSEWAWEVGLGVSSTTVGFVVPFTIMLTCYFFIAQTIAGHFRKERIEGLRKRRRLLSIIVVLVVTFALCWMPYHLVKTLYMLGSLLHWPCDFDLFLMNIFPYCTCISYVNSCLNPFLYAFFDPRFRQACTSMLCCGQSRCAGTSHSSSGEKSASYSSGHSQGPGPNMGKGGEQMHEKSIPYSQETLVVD
Nature of the test: cell-based or functional assay.

The target of test [2] is T2, rat APJ receptor (rat, UniProt Q9JHG3 1-377).
T2 sequence (looked up): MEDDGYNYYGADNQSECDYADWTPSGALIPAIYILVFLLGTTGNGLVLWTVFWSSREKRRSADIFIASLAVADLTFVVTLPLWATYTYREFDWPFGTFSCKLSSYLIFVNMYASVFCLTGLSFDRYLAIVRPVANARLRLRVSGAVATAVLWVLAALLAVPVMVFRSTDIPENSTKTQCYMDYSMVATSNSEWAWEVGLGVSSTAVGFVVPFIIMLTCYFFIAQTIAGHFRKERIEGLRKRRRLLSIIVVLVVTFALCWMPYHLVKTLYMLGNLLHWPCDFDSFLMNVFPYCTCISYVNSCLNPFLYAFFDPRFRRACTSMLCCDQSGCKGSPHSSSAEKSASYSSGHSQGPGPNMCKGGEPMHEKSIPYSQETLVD
Nature of the test: cell-based or functional assay.

As for Palmitoyl-[γGlu][AEEA][AEEA][dQ]RP[NMeR][Cha][BLeu]HKG[Oic][Nle][β3hP][d(β3hF)]-OH [SEQ ID NO: 615], the “EC50 Human APJ Receptor” value in test [1] is 9.42 nM. In addition, the “EC50 Rat APJ Receptor” value in test [2] came to 23.2 nM.
For the molecule Palmitoyl-[AC4Abu][AEEA][AEEA][dQ]RP[NMeR][Cha][NPrGly]HKG[Pip′][Nle][Aib][Phe(4-Cl)]-OH [SEQ ID NO: 643], in test [1], the “EC50 Human APJ Receptor” value was found to be 0.463 nM. Besides, the “EC50 Rat APJ Receptor” value in test [2] was 3.79 nM.

B1: SEQ ID NO: 632 (peptide)
peptide: Palmitoyl-[γGlu][AEEA][AEEA][dQ]RP[NMeR][αMeL]SH[NPipG]G[Oic][Nle][β3hP][Phe(4-Cl)]-OH
SMILES: CCCCCCCCCCCCCCCC(=O)N[C@@H](CCC(=O)NCCOCCOCC(=O)NCCOCCOCC(=O)N[C@H](CCC(N)=O)C(=O)N[C@@H](CCCNC(=N)N)C(=O)N1CCC[C@H]1C(=O)N(C)[C@@H](CCCNC(=N)N)C(=O)N[C@@](C)(CC(C)C)C(=O)N[C@@H](CO)C(=O)N[C@@H](Cc1c[nH]cn1)C(=O)N(CC(=O)NCC(=O)N1[C@H](C(=O)N[C@@H](CCCC)C(=O)N2CCC[C@H]2CC(=O)N[C@@H](Cc2ccc(Cl)cc2)C(=O)O)C[C@@H]2CCCC[C@@H]21)C1CCNCC1)C(=O)O
Consider B1, for which the “EC50 Human APJ Receptor” value in test [1] was found to be 3.02 nM. Also, the “EC50 Rat APJ Receptor” value in test [2] came out at 22 nM.

B2: SEQ ID NO: 616 (peptide)
peptide: Palmitoyl-[γGlu][AEEA][AEEA][dQ]RP[NMeR][Cha]S[Dap]KG[Oic][Nle][β3hP][d(β3hF)]-OH
SMILES: CCCCCCCCCCCCCCCC(=O)N[C@@H](CCC(=O)NCCOCCOCC(=O)NCCOCCOCC(=O)N[C@H](CCC(N)=O)C(=O)N[C@@H](CCCNC(=N)N)C(=O)N1CCC[C@H]1C(=O)N(C)[C@@H](CCCNC(=N)N)C(=O)N[C@@H](CC1CCCCC1)C(=O)N[C@@H](CO)C(=O)N[C@@H](CN)C(=O)N[C@@H](CCCCN)C(=O)NCC(=O)N1[C@H](C(=O)N[C@@H](CCCC)C(=O)N2CCC[C@H]2CC(=O)N[C@@H](CC(=O)O)Cc2ccccc2)C[C@@H]2CCCC[C@@H]21)C(=O)O
As to B2, the “EC50 Human APJ Receptor” value in test [1] came to 2.75 nM. The “EC50 Rat APJ Receptor” value in test [2] came to 17.2 nM.
The corresponding values for Palmitoyl-[γGlu][AEEA][AEEA][dQ]RP[NMeR][αMeL]SHKG[Oic][Nle][β3hP][Phe(4-Cl)]-OH (not fully specified (residue 10)) [SEQ ID NO: 631] are 0.338 nM and 0.699 nM.

B3: SEQ ID NO: 621 (peptide)
peptide: Palmitoyl-[γGlu][AEEA][AEEA][dQ]RP[NMeR][Cha]SH[Phe(4-Cl)]G[Oic][Nle][β3hP][d(β3hF)]-OH
SMILES: CCCCCCCCCCCCCCCC(=O)N[C@@H](CCC(=O)NCCOCCOCC(=O)NCCOCCOCC(=O)N[C@H](CCC(N)=O)C(=O)N[C@@H](CCCNC(=N)N)C(=O)N1CCC[C@H]1C(=O)N(C)[C@@H](CCCNC(=N)N)C(=O)N[C@@H](CC1CCCCC1)C(=O)N[C@@H](CO)C(=O)N[C@@H](Cc1c[nH]cn1)C(=O)N[C@@H](Cc1ccc(Cl)cc1)C(=O)NCC(=O)N1[C@H](C(=O)N[C@@H](CCCC)C(=O)N2CCC[C@H]2CC(=O)N[C@@H](CC(=O)O)Cc2ccccc2)C[C@@H]2CCCC[C@@H]21)C(=O)O
As to B3, the “EC50 Human APJ Receptor” value in test [1] is 16.4 nM. The “EC50 Rat APJ Receptor” value in test [2] was found to be 26.1 nM.

B4: SEQ ID NO: 622 (peptide)
peptide: Palmitoyl-[γGlu][AEEA][AEEA][dQ]RP[NMeR][Cha]SH[Phe(4-F)]G[Oic][Nle][β3hP][d(β3hF)]-OH
SMILES: CCCCCCCCCCCCCCCC(=O)N[C@@H](CCC(=O)NCCOCCOCC(=O)NCCOCCOCC(=O)N[C@H](CCC(N)=O)C(=O)N[C@@H](CCCNC(=N)N)C(=O)N1CCC[C@H]1C(=O)N(C)[C@@H](CCCNC(=N)N)C(=O)N[C@@H](CC1CCCCC1)C(=O)N[C@@H](CO)C(=O)N[C@@H](Cc1c[nH]cn1)C(=O)N[C@@H](Cc1ccc(F)cc1)C(=O)NCC(=O)N1[C@H](C(=O)N[C@@H](CCCC)C(=O)N2CCC[C@H]2CC(=O)N[C@@H](CC(=O)O)Cc2ccccc2)C[C@@H]2CCCC[C@@H]21)C(=O)O
Turning to B4, the “EC50 Human APJ Receptor” value in test [1] came out at 11.8 nM. In test [2], the “EC50 Rat APJ Receptor” value was 19.7 nM.
For the molecule Palmitoyl-[AC4Abu][AEEA][AEEA][dQ]RP[NMeR][αMeL]SHK[Sar][Oic][Nle][β3hP][Phe(4-Cl)]-OH [SEQ ID NO: 641], in test [1], the “EC50 Human APJ Receptor” value was determined as 0.58 nM. Further, the “EC50 Rat APJ Receptor” value in test [2] came to 3.66 nM.
The corresponding values for Palmitoyl-[AC4Abu][AEEA][AEEA][dQ]RP[NMeR][αMeL]SH[Igl]G[Oic][Nle][β3hP][Phe(4-Cl)]-OH [SEQ ID NO: 640] are 4.03 nM and 25.2 nM.

B5: SEQ ID NO: 634 (peptide)
peptide: Palmitoyl-[γGlu][AEEA][AEEA][dQ]RP[NMeR][αMeL]SH[Orn]G[Oic][Nle][β3hP][Phe(4-Cl)]-OH
SMILES: CCCCCCCCCCCCCCCC(=O)N[C@@H](CCC(=O)NCCOCCOCC(=O)NCCOCCOCC(=O)N[C@H](CCC(N)=O)C(=O)N[C@@H](CCCNC(=N)N)C(=O)N1CCC[C@H]1C(=O)N(C)[C@@H](CCCNC(=N)N)C(=O)N[C@@](C)(CC(C)C)C(=O)N[C@@H](CO)C(=O)N[C@@H](Cc1c[nH]cn1)C(=O)N[C@@H](CCCN)C(=O)NCC(=O)N1[C@H](C(=O)N[C@@H](CCCC)C(=O)N2CCC[C@H]2CC(=O)N[C@@H](Cc2ccc(Cl)cc2)C(=O)O)C[C@@H]2CCCC[C@@H]21)C(=O)O
Take B5: the “EC50 Human APJ Receptor” value in test [1] was 0.164 nM. In addition, the “EC50 Rat APJ Receptor” value in test [2] was determined as 2.21 nM.
The corresponding values for Palmitoyl-[AC4Abu][AEEA][AEEA][dQ]RP[NMeR][Cha]S[NPrGly]KG[Pip′][Nle][Aib][Phe(4-Cl)]-OH [SEQ ID NO: 644] are 1.4 nM and 4.2 nM.

B6: SEQ ID NO: 620 (peptide)
peptide: Palmitoyl-[γGlu][AEEA][AEEA][dQ]RP[NMeR][Cha]SH[3Pal]G[Oic][Nle][β3hP][d(β3hF)]-OH
SMILES: CCCCCCCCCCCCCCCC(=O)N[C@@H](CCC(=O)NCCOCCOCC(=O)NCCOCCOCC(=O)N[C@H](CCC(N)=O)C(=O)N[C@@H](CCCNC(=N)N)C(=O)N1CCC[C@H]1C(=O)N(C)[C@@H](CCCNC(=N)N)C(=O)N[C@@H](CC1CCCCC1)C(=O)N[C@@H](CO)C(=O)N[C@@H](Cc1c[nH]cn1)C(=O)N[C@@H](Cc1cccnc1)C(=O)NCC(=O)N1[C@H](C(=O)N[C@@H](CCCC)C(=O)N2CCC[C@H]2CC(=O)N[C@@H](CC(=O)O)Cc2ccccc2)C[C@@H]2CCCC[C@@H]21)C(=O)O
B6: the “EC50 Human APJ Receptor” value in test [1] worked out at 7.42 nM. For the same molecule, in test [2], the “EC50 Rat APJ Receptor” value was found to be 14.9 nM.
